From patent US20250243272A1 (GOOD T CELLS, published 2025)
Positions count from the first letter of the chain named.

T1: Lrig-1 protein expressed on the surfaces of L cells (human, UniProt Q96JA1 35-1093)
T1 construct: no signal peptide limits are stated; also called L cells that stably express Lrig-1
T1 sequence: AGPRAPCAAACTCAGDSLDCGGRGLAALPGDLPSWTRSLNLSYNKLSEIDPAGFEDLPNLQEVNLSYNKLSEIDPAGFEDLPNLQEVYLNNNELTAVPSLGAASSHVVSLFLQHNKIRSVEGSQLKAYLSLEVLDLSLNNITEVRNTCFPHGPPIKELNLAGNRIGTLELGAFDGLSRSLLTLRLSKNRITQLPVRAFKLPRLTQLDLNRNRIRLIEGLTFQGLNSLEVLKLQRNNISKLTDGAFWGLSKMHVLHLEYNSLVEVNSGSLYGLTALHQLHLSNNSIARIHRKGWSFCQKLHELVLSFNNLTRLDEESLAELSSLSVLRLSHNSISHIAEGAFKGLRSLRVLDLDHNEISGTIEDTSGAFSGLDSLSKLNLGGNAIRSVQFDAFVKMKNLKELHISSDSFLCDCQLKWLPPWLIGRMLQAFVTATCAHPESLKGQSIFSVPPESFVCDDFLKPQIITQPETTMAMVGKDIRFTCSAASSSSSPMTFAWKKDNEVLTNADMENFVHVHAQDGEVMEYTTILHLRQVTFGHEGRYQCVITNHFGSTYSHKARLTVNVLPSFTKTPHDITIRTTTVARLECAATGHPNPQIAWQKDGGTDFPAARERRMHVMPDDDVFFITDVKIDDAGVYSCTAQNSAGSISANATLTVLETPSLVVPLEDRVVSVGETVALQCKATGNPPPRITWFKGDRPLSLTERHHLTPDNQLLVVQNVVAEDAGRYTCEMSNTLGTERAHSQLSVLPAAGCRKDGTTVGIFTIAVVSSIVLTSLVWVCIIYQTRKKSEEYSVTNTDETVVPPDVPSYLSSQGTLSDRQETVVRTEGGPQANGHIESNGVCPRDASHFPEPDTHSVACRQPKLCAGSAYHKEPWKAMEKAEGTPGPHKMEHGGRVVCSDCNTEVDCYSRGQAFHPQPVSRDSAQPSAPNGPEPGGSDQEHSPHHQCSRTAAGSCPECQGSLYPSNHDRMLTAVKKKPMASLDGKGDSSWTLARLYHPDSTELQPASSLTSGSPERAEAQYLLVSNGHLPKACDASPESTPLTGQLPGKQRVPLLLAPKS

B1: GTC210-01 clone (Production Example 1) (antibody, mouse IgG2a, V domains shown)
VH: EVQLLESGGGLVQPGGSLRLSCAASGFTFSGYDMSWVRQAPGKGLEWVSLIYPDSGNKYYADSVKGRFTISRDNSKNTLYLQMNSLRAEDTAVYYCARDAGLSWAGAFDYWGQGTLVTVSS
VL: QSVLTQPPSASGTPGQRVTISCSGSSSNIGSNYVTWYQQLPGTAPKLLIYSDSHRPSGVPDRFSGSKSGTSASLAISGLQSEDEADYYCGSWDYSLSAYVFGGGTKLTVLR
notes: the printed full chains carry mouse constant regions
B2: GTC210-02 clone (Production Example 2) (antibody, mouse IgG2a, V domains shown)
VH: EVQLLESGGGLVQPGGSLRLSCAASGFTFSNYYMSWVRQAPGKGLEWVSGISPGDSSTYYADSVKGRFTISRDNSKNTLYLQMNSLRAEDTAVYYCAKGLYSNPNEPFDYWGQGTLVTVSS
VL: B1 VL with S23T, T35S, S51D, H54Q, Q80R, S91T, S97N, A98G
B3: GTC110-04 clone (Production Example 8) (antibody, mouse IgG2a, V domains shown)
VH: EVQLLESGGGLVQPGGSLRLSCAASGFTFSNYAMSWVRQAPGKGLEWVSVISHGGGSTYYADSVKGRFTISRDNSKNTLYLQMNSLRAEDTAVYYCARVISNCHLGVCYYSNGMDVWGQGTLVTVSS
VL: B1 VL with S31N, Y33D, T35Y, H54Q, Q80R, S91T, A98G
notes: also called GTC110-04 antibody; GTTC110-04 antibody
B4: GTC 210-04 clone (Production Example 4) (antibody, mouse IgG2a, V domains shown)
VH: EVQLLESGGGLVQPGGSLRLSCAASGFTFSNYDMSWVRQAPGKGLEWVSSISPSSGSIYYADSVKGRFTISRDNSKNTLYLQMNSLRAEDTAVYYCAKDLDAFWRPSFDYWGQGTLVTVSS
VL: B1 VL with S23T, S31N, Y33N, T35N, Q80R, Y94D
notes: The printed heavy variable region is the same as that of GTC110-01
B5: GTC110-02 clone (Production Example 6) (antibody, mouse IgG2a, V domains shown)
VH: EVQLLESGGGLVQPGGSLRLSCAASGFTFSDYYMSWVRQAPGKGLEWVSGISHDSGSKYYADSVKGRFTISRDNSKNTLYLQMNSLRAEDTAVYYCARHWTTFDYWGQGTLVTVSS
VL: B1 VL with Y33N, S51A, D52N, H54N, Q80R, S91A
B6: GTC210-03 clone (Production Example 3) (antibody, mouse IgG2a, V domains shown)
VH: EVQLLESGGGLVQPGGSLRLSCAASGFTFSSYDMSWVRQAPGKGLEWVSGISPDGSNIYYADSVKGRFTISRDNSKNTLYLQMNSLRAEDTAVYYCAKVGLRCRYEACSYAYGMDVWGQGTLVTVSS
VL: B1 VL with T35S, Q80R, G90A, S91T, Y94S, S97N, A98G
B7: GTC110-03 clone (Production Example 7) (antibody, mouse IgG2a, V domains shown)
VH: EVQLLESGGGLVQPGGSLRLSCAASGFTFSNYAMSWVRQAPGKGLEWVSAIYPGGGSIYYADSVKGRFTISRDNSKNTLYLQMNSLRAEDTAVYYCARDILPCPWGRCYYDYAMDVWGQGTLVTVSS
VL: B1 VL with G24D, Y33T, T35S, S51A, S53N, H54N, Q80R, S91T, A98G

Target: T1, Lrig-1 protein expressed on the …
Experiment: FACS on L cells stably expressing Lrig-1, eFlour 670-conjugated anti-mouse secondary antibody
Description: In order to examine whether the monoclonal antibodies according to the present invention, produced in Production Examples 1 to 8, well recognize Lrig-1, each of the antibodies of Production Examples 1 to 8 was bound to L cells that stably express Lrig-1, and then an eFlour 670-conjugated secondary antibody capable of recognizing mouse antibodies was added thereto. Next, the binding affinities of the monoclonal antibodies for the Lrig-1 protein were analyzed using FACS.

| binding result | Binder |
| --- | --- |
| binds | B1 |
| binds | B2 |
| binds | B3 |
| binds | B4 |
| binds | B5 |
| binds | B6 |
| binds | B7 |
